Laboratory results as given in paper PMC11514446, “Transcription start site scanning requires the fungi-specific hydrophobic loop of Tfb3” (Nucleic Acids Research, 2024).

T1: Rad3 (subunit of core TFIIH / TFIIH-ΔTFIIK) (S. cerevisiae, UniProt P06839 1-778)
T1 construct: Rad3, S. cerevisiae, subunit of the seven-subunit core TFIIH; contains the ARCH domain; Stood in the assay as a subunit of core TFIIH inside the reconstituted PIC-ΔTFIIK; also called XPD of metazoan TFIIH (homolog)
T1 sequence (looked up): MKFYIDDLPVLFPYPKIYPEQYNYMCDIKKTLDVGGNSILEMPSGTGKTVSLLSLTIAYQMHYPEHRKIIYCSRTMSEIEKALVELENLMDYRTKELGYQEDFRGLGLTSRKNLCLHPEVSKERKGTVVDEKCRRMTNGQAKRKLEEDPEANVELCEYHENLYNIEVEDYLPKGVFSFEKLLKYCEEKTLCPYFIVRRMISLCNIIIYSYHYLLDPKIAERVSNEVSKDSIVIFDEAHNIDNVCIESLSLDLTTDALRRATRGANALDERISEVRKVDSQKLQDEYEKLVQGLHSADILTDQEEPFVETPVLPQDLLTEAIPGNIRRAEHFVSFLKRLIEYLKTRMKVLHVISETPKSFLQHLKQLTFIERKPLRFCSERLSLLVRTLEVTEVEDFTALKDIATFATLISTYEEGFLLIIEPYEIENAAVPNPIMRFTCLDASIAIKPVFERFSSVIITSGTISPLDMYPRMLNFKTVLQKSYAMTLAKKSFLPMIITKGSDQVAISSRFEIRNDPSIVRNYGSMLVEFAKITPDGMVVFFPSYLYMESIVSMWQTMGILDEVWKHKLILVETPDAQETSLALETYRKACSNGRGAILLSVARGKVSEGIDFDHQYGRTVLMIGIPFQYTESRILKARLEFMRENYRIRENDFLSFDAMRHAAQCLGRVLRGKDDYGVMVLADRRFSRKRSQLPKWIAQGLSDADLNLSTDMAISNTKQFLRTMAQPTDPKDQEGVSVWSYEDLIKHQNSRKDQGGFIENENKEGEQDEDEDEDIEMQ


target: T1, Rad3 (subunit of core TFIIH / …); assay: cryo-EM structure; PIC-ΔTFIIK reconstituted from purified factors (TFIIA, TFIIB, TBP, TFIIE, TFIIF, TFIIH-ΔTFIIK, pol II, TFIIS) on a HIS4 promoter DNA fragment, nucleotide-free; glycerol gradient with 0-0.125% glutaraldehyde fixation; two forms from 3D classification (form 1 at 3.7 Å, form 2 at 3.8 Å); conditions: both partners purified

Row | binding result | Binder
1 | binds | Rpb4 (subunit of RNA polymerase II) (natural protein, S. cerevisiae, UniProt P20433 1-221, looked up, Rpb4, S. cerevisiae, subunit of RNA polymerase II; Stood in the assay as a subunit of pol II inside the reconstituted PIC-ΔTFIIK) MNVSTSTFQTRRRRLKKVEEEENAATLQLGQEFQLKQINHQGEEEELIALNLSEARLVIKEALVERRRAFKRSQKKHKKKHLKHENANDETTAVEDEDDDLDEDDVNADDDDFMHSETREKELESIDVLLEQTTGGNNKDLKNTMQYLTNFSRFRDQETVGAVIQLLKSTGLHPFEVAQLGSLACDTADEAKTLIPSLNNKISDDELERILKELSNLETLY
2 | binds | Tfa2 (subunit of TFIIE) (natural protein, S. cerevisiae, UniProt P36145 1-328, looked up, Tfa2, S. cerevisiae, subunit of TFIIE; contains the WH domain; Stood in the assay as a subunit of TFIIE inside the reconstituted PIC-ΔTFIIK) MSKNRDPLLANLNAFKSKVKSAPVIAPAKVGQKKTNDTVITIDGNTRKRTASERAQENTLNSAKNPVLVDIKKEAGSNSSNAISLDDDDDDEDFGSSPSKKVRPGSIAAAALQANQTDISKSHDSSKLLWATEYIQKKGKPVLVNELLDYLSMKKDDKVIELLKKLDRIEFDPKKGTFKYLSTYDVHSPSELLKLLRSQVTFKGISCKDLKDGWPQCDETINQLEEDSKILVLRTKKDKTPRYVWYNSGGNLKCIDEEFVKMWENVQLPQFAELPRKLQDLGLKPASVDPATIKRQTKRVEVKKKRQRKGKITNTHMTGILKDYSHRV
3 | binds | Tfa1 (subunit of TFIIE) (natural protein, S. cerevisiae, UniProt P36100 1-482, looked up, Tfa1, S. cerevisiae, subunit of TFIIE; Stood in the assay as a subunit of TFIIE inside the reconstituted PIC-ΔTFIIK) MDRPIDDIVKNLLKFVVRGFYGGSFVLVLDAILFHSVLAEDDLKQLLSINKTELGPLIARLRSDRLISIHKQREYPPNSKSVERVYYYVKYPHAIDAIKWKVHQVVQRLKDDLDKNSEPNGYMCPICLTKYTQLEAVQLLNFDRTEFLCSLCDEPLVEDDSGKKNKEKQDKLNRLMDQIQPIIDSLKKIDDSRIEENTFEIALARLIPPQNQSHAAYTYNPKKGSTMFRPGDSAPLPNLMGTALGNDSSRRAGANSQATLHINITTASDEVAQRELQERQAEEKRKQNAVPEWHKQSTIGKTALGRLDNEEEFDPVVTASAMDSINPDNEPAQETSYQNNRTLTEQEMEERENEKTLNDYYAALAKKQAKLNKEEEEEEEEEEDEEEEEEEEMEDVMDDNDETARENALEDEFEDVTDTAGTAKTESNTSNDVKQESINDKTEDAVNATATASGPSANAKPNDGDDDDDDDDDEMDIEFEDV
